In US20030103948A1 (NEORX, published 2003):

Target: T1, CD20 (human, UniProt P11836 1-297)
T1 construct: whole, on cells; also called CD20-positive Ramos cell line; Ramos cells
T1 sequence (looked up): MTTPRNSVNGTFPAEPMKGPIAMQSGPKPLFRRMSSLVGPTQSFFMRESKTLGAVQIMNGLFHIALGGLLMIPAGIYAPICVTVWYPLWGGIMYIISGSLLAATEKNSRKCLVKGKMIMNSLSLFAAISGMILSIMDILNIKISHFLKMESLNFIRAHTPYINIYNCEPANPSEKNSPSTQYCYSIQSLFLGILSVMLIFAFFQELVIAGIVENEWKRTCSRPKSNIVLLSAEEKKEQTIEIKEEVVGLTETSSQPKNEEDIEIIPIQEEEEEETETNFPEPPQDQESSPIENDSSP
Assay: saturation binding of radiolabeled antibody to Ramos cells (10^7 cells), nonlinear regression
Protocol: Avidity was determined using saturation binding experiments that measure specific binding of radiolabeled mAb or fusion protein (0.025-50 ng/ml) at equilibrium in the presence of excess antigen (10⁷ cells). Nonspecific binding was determined in the presence of excess cold mAb or fusion protein (50 μg/ml). […] The equilibrium dissociation constant (Kd) was calculated from nonlinear regression analysis of nM bound vs. nM radioligand using immunoreactivity-adjusted antibody concentrations.
Kd and Kₐ were calculated using nonlinear regression analysis of nM bound vs. nM radioligand.

B1: B9E9 mAb (antibody, V domains shown)
VH: QVQLVQSGAELVKPGASVKMSCKASGYTFTSYNMHWVKQTPGQGLEWIGAIYPGNGDTSYNQKFKGKATLTADKSSSTAYMQLSSLTSEDSAVYYCARAQLRPNYWYFDVWGAGTTVTVSS
VL: DIVLSQSPAILSASPGEKVTMTCRASSSVSYMHWYQQKPGSSPKPWIYATSNLASGVPARFSGSGSGTSYSLTISRVEAEDAATYYCQQWISNPPTFGAGTKLELK
modifications: Used unlabelled, fluorescein-labelled (FACS tracer) and radiolabelled (avidity assay).
notes: also called divalent B9E9 antibody; murine anti-CD20 antibody B9E9
Ka: 1.02e+08 M⁻¹ | Kd: 9.75 nM
